Data reported in patent US20170360893A1 (Merck Sharp & Dohme, published 2017).
*1 amine or outer side, *2 acyl side, *3 side chain or, on linkers, in order; H or OH if unused. Where no end group is shown, it is not given here. Side-chain parts run from the residue outwards. [ ]: non-standard residue; d: D form. The star is where a group is joined. γGlu = O=C(O)[C@H](CCC(=O)[*:2])N[*:1]; Palmitoyl = CCCCCCCCCCCCCCCC(=O)*; Nle = CCCC[C@H](N)C(=O)O; Ac4c = NC1(C(=O)O)CCC1; Aib = CC(C)(N)C(=O)O

B1: Co-agonist Peptide 13 (peptide)
peptide: H[Ac4c]QGTFTSDK([γGlu-γGlu-Palmitoyl])SKYLDERAAQDFVQWLLDT-NH2
modifications: N-terminus assumed
SMILES: CCCCCCCCCCCCCCCC(=O)N[C@@H](CCC(=O)N[C@@H](CCC(=O)NCCCC[C@H](NC(=O)[C@H](CC(=O)O)NC(=O)[C@H](CO)NC(=O)[C@@H](NC(=O)[C@H](Cc1ccccc1)NC(=O)[C@@H](NC(=O)CNC(=O)[C@H](CCC(N)=O)NC(=O)C1(NC(=O)[C@@H](N)Cc2c[nH]cn2)CCC1)[C@@H](C)O)[C@@H](C)O)C(=O)N[C@@H](CO)C(=O)N[C@@H](CCCCN)C(=O)N[C@@H](Cc1ccc(O)cc1)C(=O)N[C@@H](CC(C)C)C(=O)N[C@@H](CC(=O)O)C(=O)N[C@@H](CCC(=O)O)C(=O)N[C@@H](CCCNC(=N)N)C(=O)N[C@@H](C)C(=O)N[C@@H](C)C(=O)N[C@@H](CCC(N)=O)C(=O)N[C@@H](CC(=O)O)C(=O)N[C@@H](Cc1ccccc1)C(=O)N[C@H](C(=O)N[C@@H](CCC(N)=O)C(=O)N[C@@H](Cc1c[nH]c2ccccc12)C(=O)N[C@@H](CC(C)C)C(=O)N[C@@H](CC(C)C)C(=O)N[C@@H](CC(=O)O)C(=O)N[C@H](C(N)=O)[C@@H](C)O)C(C)C)C(=O)O)C(=O)O
B2: Co-agonist Peptide 14 (peptide)
peptide: HXQGTXTSDKSKYLDERAAQDFVQWLLDT
modifications: not fully specified; X2 = D-Ser; X6 = threo-β-Phenylserine (tβP); K10 conjugated to γEγEC16; C-terminal amide
B3: Co-agonist Peptide 3 (peptide)
peptide: H[dS]QGTFTSDK([γGlu-γGlu-Palmitoyl])SKYLDVRAAQDFVQWLLDT-NH2
modifications: N-terminus assumed
SMILES: CCCCCCCCCCCCCCCC(=O)N[C@@H](CCC(=O)N[C@@H](CCC(=O)NCCCC[C@H](NC(=O)[C@H](CC(=O)O)NC(=O)[C@H](CO)NC(=O)[C@@H](NC(=O)[C@H](Cc1ccccc1)NC(=O)[C@@H](NC(=O)CNC(=O)[C@H](CCC(N)=O)NC(=O)[C@@H](CO)NC(=O)[C@@H](N)Cc1c[nH]cn1)[C@@H](C)O)[C@@H](C)O)C(=O)N[C@@H](CO)C(=O)N[C@@H](CCCCN)C(=O)N[C@@H](Cc1ccc(O)cc1)C(=O)N[C@@H](CC(C)C)C(=O)N[C@@H](CC(=O)O)C(=O)N[C@H](C(=O)N[C@@H](CCCNC(=N)N)C(=O)N[C@@H](C)C(=O)N[C@@H](C)C(=O)N[C@@H](CCC(N)=O)C(=O)N[C@@H](CC(=O)O)C(=O)N[C@@H](Cc1ccccc1)C(=O)N[C@H](C(=O)N[C@@H](CCC(N)=O)C(=O)N[C@@H](Cc1c[nH]c2ccccc12)C(=O)N[C@@H](CC(C)C)C(=O)N[C@@H](CC(C)C)C(=O)N[C@@H](CC(=O)O)C(=O)N[C@H](C(N)=O)[C@@H](C)O)C(C)C)C(C)C)C(=O)O)C(=O)O

These binders were tested against human glucagon receptor (human, UniProt P47871 26-477) (assay: cell-based or functional assay).
Chain of human glucagon receptor (P47871 26-477): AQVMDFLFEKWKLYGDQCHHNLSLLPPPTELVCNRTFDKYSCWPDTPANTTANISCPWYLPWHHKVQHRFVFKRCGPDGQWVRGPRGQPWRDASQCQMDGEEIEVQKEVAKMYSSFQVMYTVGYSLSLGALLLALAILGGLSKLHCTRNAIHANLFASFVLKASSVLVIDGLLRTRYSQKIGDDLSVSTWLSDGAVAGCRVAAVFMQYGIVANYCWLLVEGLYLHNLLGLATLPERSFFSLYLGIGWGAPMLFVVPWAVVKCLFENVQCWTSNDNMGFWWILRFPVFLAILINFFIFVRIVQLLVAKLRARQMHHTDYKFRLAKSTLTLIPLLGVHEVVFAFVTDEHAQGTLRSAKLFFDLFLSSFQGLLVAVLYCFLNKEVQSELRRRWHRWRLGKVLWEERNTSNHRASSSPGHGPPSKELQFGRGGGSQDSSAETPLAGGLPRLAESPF
With B1 the “GCGR EC50 (nM) human; cAMP production (HitHunter cAMP XS) in cells expressing human GCGR, 20% human serum” value (shortened to “GCGR EC50 (nM) human … 20% human serum”) was 0.06 nM.
In the case of B2, the “GCGR EC50 (nM) human … 20% human serum” value is reported as 1.04 nM.
H[dS]QGTFTSDK([γGlu-γGlu-Palmitoyl])SKYLDVRRAQDFVQWLLDT-NH2 (not fully specified; printed as HsQGTFTSDK(γEγEC16)SKYLDVRRAQDFVQWLLDT-NH2) [Co-agonist Peptide 2] was tested, and the “GCGR EC50 (nM) human … 20% human serum” value was 0.041 nM.
For B3, the “GCGR EC50 (nM) human … 20% human serum” value was 0.08 nM.
H[Aib]VGTFTSDK([γGlu-γGlu-Palmitoyl])SKYLD[Aib]RAAQDFVQWL[Nle]DT-NH2 [Co-agonist Peptide 4] was tested, and the “GCGR EC50 (nM) human … 20% human serum” value was 0.89 nM.

The binders below were run against human glucagon-like peptide 1 receptor (human, UniProt P43220 24-463) (assay: cell-based or functional assay).
B1 was tested, and the “GLPR1 EC50 (nM) human; cAMP production (HitHunter cAMP XS) in cells expressing human GLP-1R, 20% human serum” value (from here on “GLPR1 EC50 (nM) human … 20% human serum”) was 0.05 nM.
With B2 the “GLPR1 EC50 (nM) human … 20% human serum” value was 1.02 nM.
For H[dS]QGTFTSDK([γGlu-γGlu-Palmitoyl])SKYLDVRRAQDFVQWLLDT-NH2 (not fully specified; printed as HsQGTFTSDK(γEγEC16)SKYLDVRRAQDFVQWLLDT-NH2) [Co-agonist Peptide 2], the “GLPR1 EC50 (nM) human … 20% human serum” value was 0.16 nM.
B3 was tested, and the “GLPR1 EC50 (nM) human … 20% human serum” value was 0.13 nM.
For H[Aib]VGTFTSDK([γGlu-γGlu-Palmitoyl])SKYLD[Aib]RAAQDFVQWL[Nle]DT-NH2 [Co-agonist Peptide 4], the “GLPR1 EC50 (nM) human … 20% human serum” value was 0.1 nM.
